Reference: the supplement of paper PMC9112550, “Optimization of the antimicrobial peptide Bac7 by deep mutational scanning” (BMC Biology, 2022)

Each sequence was assayed on Escherichia coli TOP10 (assay: shrunken log2 fold change of peptide-encoding DNA abundance (4.5 h post-induction vs induction); higher = less antimicrobial activity (less host growth inhibition)). Details: time post-induction: 4.5 h; library: site-saturation at positions 5, 18, 19, 20.
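Further: peptides expressed intracellularly from a pBAD plasmid library in pooled LB shake-flask culture, induced with 0.3% L-arabinose, DNA abundance read by NGS, three biological replicates, DESeq2 with apeglm shrinkage.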

Point of comparison: RRIRQRPPRLPRPRPRPLPFPRP, “shrunken log2 fold change” value -0.782. Against it:
- RRIRKRPPRLPRPRPRPSQYPRP — higher, -0.21
- RRIRLRPPRLPRPRPRPQIYPRP — higher, -0.17
- RRIRFRPPRLPRPRPRPSEIPRP — higher, -0.345
- RRIRCRPPRLPRPRPRPGRWPRP — higher, 0.434
- RRIRIRPPRLPRPRPRPGARPRP — higher, 0.251
- RRIRTRPPRLPRPRPRPMGPPRP — higher, -0.114
- RRIRWRPPRLPRPRPRPFQHPRP — higher, 0.0415
- RRIRTRPPRLPRPRPRPMCQPRP — higher, -0.0075
- RRIRHRPPRLPRPRPRPQWDPRP — higher, -0.0406
- RRIRMRPPRLPRPRPRPCSWPRP — higher, 0.0611
- RRIRNRPPRLPRPRPRPEKVPRP — higher, -0.105
- RRIRGRPPRLPRPRPRPPMWPRP — higher, 1.1
- RRIRVRPPRLPRPRPRPRMQPRP — higher, 0.123
- RRIRERPPRLPRPRPRPQPEPRP — higher, -0.0263
- RRIRERPPRLPRPRPRPIINPRP — within 0.2 log units, -0.702
- RRIRYRPPRLPRPRPRPTKEPRP — higher, -0.00889
- RRIRSRPPRLPRPRPRPRRDPRP — higher, 0.297
- RRIRNRPPRLPRPRPRPLFIPRP — lower, -1.03
- RRIRVRPPRLPRPRPRPTFLPRP — higher, -0.0973
- RRIRYRPPRLPRPRPRPQTQPRP — higher, -0.275
- RRIRCRPPRLPRPRPRPFMEPRP — lower, -0.996
- RRIRVRPPRLPRPRPRPHEWPRP — higher, -0.276
- RRIRLRPPRLPRPRPRPFARPRP — higher, -0.00783
- RRIRKRPPRLPRPRPRPIILPRP — higher, -0.11
- RRIRNRPPRLPRPRPRPIYQPRP — higher, 0.0607
- RRIRIRPPRLPRPRPRPKSEPRP — higher, -0.329
- RRIRSRPPRLPRPRPRPGDIPRP — higher, -0.198
- RRIRWRPPRLPRPRPRPREVPRP — higher, 0.477
- RRIRQRPPRLPRPRPRPKKFPRP — higher, -0.097
- RRIRKRPPRLPRPRPRPIVTPRP — higher, 0.102
- RRIRIRPPRLPRPRPRPGMTPRP — higher, -0.164
- RRIRDRPPRLPRPRPRPIWSPRP — higher, -0.0288
- RRIRVRPPRLPRPRPRPATEPRP — higher, -0.0882
- RRIRSRPPRLPRPRPRPHAWPRP — higher, 0.149
- RRIRMRPPRLPRPRPRPYKRPRP — higher, -0.0368
- RRIRSRPPRLPRPRPRPYFYPRP — within 0.2 log units, -0.695
- RRIRARPPRLPRPRPRPEVVPRP — higher, 1.32
- RRIRQRPPRLPRPRPRPIDRPRP — higher, 0.118
- RRIRRRPPRLPRPRPRPYYLPRP — higher, -0.308
- RRIRWRPPRLPRPRPRPVQGPRP — higher, -0.124
- RRIRFRPPRLPRPRPRPWLAPRP — higher, 2.73
- RRIRERPPRLPRPRPRPSQYPRP — higher, -0.113
- RRIRQRPPRLPRPRPRPHFLPRP — higher, -0.218
- RRIRTRPPRLPRPRPRPQLMPRP — higher, -0.137
- RRIRSRPPRLPRPRPRPRAPPRP — higher, 0.716
- RRIRMRPPRLPRPRPRPDNHPRP — higher, -0.21
- RRIRIRPPRLPRPRPRPQMWPRP — higher, -0.171
- RRIRVRPPRLPRPRPRPALLPRP — higher, -0.211
- RRIRSRPPRLPRPRPRPDWNPRP — higher, -0.298
- RRIRHRPPRLPRPRPRPEHHPRP — higher, -0.0643
- RRIRERPPRLPRPRPRPICFPRP — higher, -0.221
- RRIRARPPRLPRPRPRPKCAPRP — higher, 0.363
- RRIRERPPRLPRPRPRPDEAPRP — higher, 0.323
- RRIRHRPPRLPRPRPRPVHAPRP — higher, 0.346
- RRIRWRPPRLPRPRPRPVTSPRP — higher, 0.112
- RRIRLRPPRLPRPRPRPPLKPRP — higher, 0.253
- RRIRNRPPRLPRPRPRPMCDPRP — higher, -0.386
- RRIRIRPPRLPRPRPRPIDHPRP — higher, -0.0137
- RRIRPRPPRLPRPRPRPHPMPRP — higher, -0.0882
- RRIRERPPRLPRPRPRPCSTPRP — within 0.2 log units, -0.702
- RRIRCRPPRLPRPRPRPFREPRP — higher, -0.386
- RRIRFRPPRLPRPRPRPLFCPRP — higher, -0.462
- RRIRFRPPRLPRPRPRPLAEPRP — higher, -0.0472
- RRIRPRPPRLPRPRPRPMRMPRP — higher, 0.268
- RRIRKRPPRLPRPRPRPNIRPRP — higher, -0.0456
- RRIRTRPPRLPRPRPRPHEGPRP — higher, -0.00663
- RRIRSRPPRLPRPRPRPMRPPRP — higher, 0.787
- RRIRERPPRLPRPRPRPEPLPRP — higher, -0.091
- RRIRERPPRLPRPRPRPGWRPRP — higher, 0.0971
- RRIRCRPPRLPRPRPRPKRWPRP — higher, 0.627
- RRIRNRPPRLPRPRPRPPIHPRP — higher, -0.582
- RRIRMRPPRLPRPRPRPNDRPRP — higher, 0.141
- RRIRRRPPRLPRPRPRPKMVPRP — higher, 0.105
- RRIRSRPPRLPRPRPRPMVWPRP — higher, 0.0214
